Results published in publication doi:10.1101/2022.11.10.515925 (bioRxiv, 2022).

Biological target: the molecule itself
Assay: SEC-MALS

Protein | stoichiometry N
KIF20A 1-665 (dimeric motor construct) (domain or fragment, mouse, UniProt P97329 1-665, looked up) MSHRILSPPAGLLSDEDVVDSPILESTAADLRSVVRKDLLSDCSVISASLEDKQALLEDTSEKVKVYLRIRPFLTSELDRQEDQGCVCIENTETLVLQAPKDSFALKSNERGVGQATHKFTFSQIFGPEVGQVAFFNLTMKEMVKDVLKGQNWLIYTYGVTNSGKTYTIQGTSKDAGILPQSLALIFNSLQGQLHPTPDLKPLLSNEVIWLDSKQIRQEEMKKLSLLIGGLQEEELSTSVKKRVHTESRIGASNSFDSGVAGLSSTSQFTSSSQLDETSQLWAQPDTVPVSVPADIRFSVWISFFEIYNELLYDLLEPPSHQHKRQTLRLCEDQNGNPYVKDLNWIHVRDVEEAWKLLKVGRKNQSFASTHMNQQSSRSHSIFSIRILHLQGEGDIVPKISELSLCDLAGSERCKHQKSGERLKEAGNINTSLHTLGRCIAALRQNQQNRSKQNLIPFRDSKLTRVFQGFFTGRGRSCMIVNVNPCASTYDETLHAAKFSALASQLVHAPPVHLGIPSLHSFIKKHSPQVGPGLEKEDKADSDLEDSPEDEADVSVYGKEELLQVVEAMKALLLKERQEKLQLEIQLREEICNEMVEQMQQREQWCSERLDNQKELMEELYEEKLKILKESLTTFYQEQIQERDEKIEELETLLQEAKQQPAAQQ | 2
KIF20A 55-665 (dimeric motor construct) (domain or fragment, mouse, UniProt P97329 55-665, looked up) ALLEDTSEKVKVYLRIRPFLTSELDRQEDQGCVCIENTETLVLQAPKDSFALKSNERGVGQATHKFTFSQIFGPEVGQVAFFNLTMKEMVKDVLKGQNWLIYTYGVTNSGKTYTIQGTSKDAGILPQSLALIFNSLQGQLHPTPDLKPLLSNEVIWLDSKQIRQEEMKKLSLLIGGLQEEELSTSVKKRVHTESRIGASNSFDSGVAGLSSTSQFTSSSQLDETSQLWAQPDTVPVSVPADIRFSVWISFFEIYNELLYDLLEPPSHQHKRQTLRLCEDQNGNPYVKDLNWIHVRDVEEAWKLLKVGRKNQSFASTHMNQQSSRSHSIFSIRILHLQGEGDIVPKISELSLCDLAGSERCKHQKSGERLKEAGNINTSLHTLGRCIAALRQNQQNRSKQNLIPFRDSKLTRVFQGFFTGRGRSCMIVNVNPCASTYDETLHAAKFSALASQLVHAPPVHLGIPSLHSFIKKHSPQVGPGLEKEDKADSDLEDSPEDEADVSVYGKEELLQVVEAMKALLLKERQEKLQLEIQLREEICNEMVEQMQQREQWCSERLDNQKELMEELYEEKLKILKESLTTFYQEQIQERDEKIEELETLLQEAKQQPAAQQ | 2
KIF20A 25-665 (dimeric motor construct) (domain or fragment, mouse, UniProt P97329 25-665, looked up) ESTAADLRSVVRKDLLSDCSVISASLEDKQALLEDTSEKVKVYLRIRPFLTSELDRQEDQGCVCIENTETLVLQAPKDSFALKSNERGVGQATHKFTFSQIFGPEVGQVAFFNLTMKEMVKDVLKGQNWLIYTYGVTNSGKTYTIQGTSKDAGILPQSLALIFNSLQGQLHPTPDLKPLLSNEVIWLDSKQIRQEEMKKLSLLIGGLQEEELSTSVKKRVHTESRIGASNSFDSGVAGLSSTSQFTSSSQLDETSQLWAQPDTVPVSVPADIRFSVWISFFEIYNELLYDLLEPPSHQHKRQTLRLCEDQNGNPYVKDLNWIHVRDVEEAWKLLKVGRKNQSFASTHMNQQSSRSHSIFSIRILHLQGEGDIVPKISELSLCDLAGSERCKHQKSGERLKEAGNINTSLHTLGRCIAALRQNQQNRSKQNLIPFRDSKLTRVFQGFFTGRGRSCMIVNVNPCASTYDETLHAAKFSALASQLVHAPPVHLGIPSLHSFIKKHSPQVGPGLEKEDKADSDLEDSPEDEADVSVYGKEELLQVVEAMKALLLKERQEKLQLEIQLREEICNEMVEQMQQREQWCSERLDNQKELMEELYEEKLKILKESLTTFYQEQIQERDEKIEELETLLQEAKQQPAAQQ | 2
KIF20A 55-665 Δ(518-549) (dimeric motor, shortened neck linker) (domain or fragment, mouse, UniProt P97329 55-665, looked up) ALLEDTSEKVKVYLRIRPFLTSELDRQEDQGCVCIENTETLVLQAPKDSFALKSNERGVGQATHKFTFSQIFGPEVGQVAFFNLTMKEMVKDVLKGQNWLIYTYGVTNSGKTYTIQGTSKDAGILPQSLALIFNSLQGQLHPTPDLKPLLSNEVIWLDSKQIRQEEMKKLSLLIGGLQEEELSTSVKKRVHTESRIGASNSFDSGVAGLSSTSQFTSSSQLDETSQLWAQPDTVPVSVPADIRFSVWISFFEIYNELLYDLLEPPSHQHKRQTLRLCEDQNGNPYVKDLNWIHVRDVEEAWKLLKVGRKNQSFASTHMNQQSSRSHSIFSIRILHLQGEGDIVPKISELSLCDLAGSERCKHQKSGERLKEAGNINTSLHTLGRCIAALRQNQQNRSKQNLIPFRDSKLTRVFQGFFTGRGRSCMIVNVNPCASTYDETLHAAKFSALASQLVHAPPVHLGIPDEADVSVYGKEELLQVVEAMKALLLKERQEKLQLEIQLREEICNEMVEQMQQREQWCSERLDNQKELMEELYEEKLKILKESLTTFYQEQIQERDEKIEELETLLQEAKQQPAAQQ | 2
KIF20A 55-665 Δ(535-549) (dimeric motor, shortened neck linker) (domain or fragment, mouse, UniProt P97329 55-665, looked up) ALLEDTSEKVKVYLRIRPFLTSELDRQEDQGCVCIENTETLVLQAPKDSFALKSNERGVGQATHKFTFSQIFGPEVGQVAFFNLTMKEMVKDVLKGQNWLIYTYGVTNSGKTYTIQGTSKDAGILPQSLALIFNSLQGQLHPTPDLKPLLSNEVIWLDSKQIRQEEMKKLSLLIGGLQEEELSTSVKKRVHTESRIGASNSFDSGVAGLSSTSQFTSSSQLDETSQLWAQPDTVPVSVPADIRFSVWISFFEIYNELLYDLLEPPSHQHKRQTLRLCEDQNGNPYVKDLNWIHVRDVEEAWKLLKVGRKNQSFASTHMNQQSSRSHSIFSIRILHLQGEGDIVPKISELSLCDLAGSERCKHQKSGERLKEAGNINTSLHTLGRCIAALRQNQQNRSKQNLIPFRDSKLTRVFQGFFTGRGRSCMIVNVNPCASTYDETLHAAKFSALASQLVHAPPVHLGIPSLHSFIKKHSPQVGPGLDEADVSVYGKEELLQVVEAMKALLLKERQEKLQLEIQLREEICNEMVEQMQQREQWCSERLDNQKELMEELYEEKLKILKESLTTFYQEQIQERDEKIEELETLLQEAKQQPAAQQ | 2
